Kd data for 1 molecule are collected here from publication PMC12415521 (Methods in molecular biology (Clifton, N.J.), 2023).

In test [1] the target is T1, CD2 domain of cpSRP43.
T1 chain: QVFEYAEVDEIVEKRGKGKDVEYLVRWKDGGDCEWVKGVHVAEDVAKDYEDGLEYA
The test is described as follows: ITC. Background: Isothermal titration calorimetry measures the heat released or taken up as one component is titrated into another.

Test [2] addresses T1, CD2 domain of cpSRP43. The test is described as follows: ITC.

Where two headings read alike, the source gives them in different places.

Broadly, the Kd is the constant that tells how readily two partners part at equilibrium. Regarding APPGTARRKRKADS [54-peptide], the Kd is 1270 nM with CD2 domain of cpSRP43 [1] and 1420 nM with CD2 domain of cpSRP43 [2].
